Data set [1] can be described thus: Rheological property detection (storage modulus of triggered gel). Type of data set: physicochemical. The following applies: concentration of 2.5%; after contact with a metallic ion or change pH value. The protocol: (§1) Peptide solutions with different concentrations were prepared, and an appropriate amount of 10×PBS was added such that the final PBS concentration of the solution was 1×, after the solution was in contact with PBS to be triggered to be gel, the gel was taken out slowly with a spoon and placed onto a rheometer plate. A 40 mm plate was placed leaving the gap of about 450 µm, and kept at 37° C. for 5 minutes under a pressure of 1 pa, and frequency scanning was at 0.1 hz-10 hz. […] The highest concentration of the solution was set with the reference to the highest concentration at which a gel will not form immediately when the peptide was fully dissolved, according to which peptide solutions with a serial of diluted concentrations were prepared to perform storage modulus detections. For peptides represented by ① and ② in which the head and the tail are Pro, the storage modulus were able to reach 1000pa or higher after the PBS triggered the gelation, whereas before gelation, the solution can also maintain good fluidity.

Data set [2] is described as follows: Fluidity / viscosity of peptide solutions on dissolution (observation). Type of data set: physicochemical. Conditions: for viscosity during dissolution: with increasing concentration. The protocol:
as §1

The nature of data set [3]: Viscosity testing of peptide solution (rheometer). Type of data set: physicochemical. The following applies: shear rate 10 1/s. The protocol: A peptide solution was prepared, a 50 mm plate was chosen for the rheometer, a 1 mm gap was set, and 2 ml of the peptide solution was taken, and placed in the gap under the plate. The shear rate was set as 10 1/s. Average values were recorded.

For another data set, the system named is rabbit back skin wound. Put plainly: Rabbit hemostasis experiment on the back. Type of data set: in vivo, New Zealand rabbits. How it is done: Hemostatic procedures: a peptide aqueous solution ① with a concentration of 3% was prepared for rabbit hemostasis on the back. After injection of anesthesia via ear veins in New Zealand rabbits, a skin incision of about 1.5 cm was made on the back, and an incision depth was made until a blood vessel ruptured, and blood flowed out. After the blood flowed out was wiped off with a gauze, the peptide aqueous solution was sprayed onto a wound site immediately, and timing was conducted. In the hemostatic process, oozed blood was wiped constantly with a gauze, until no blood flowed out, and the timing was stopped, and after 1 minute, excess gel was removed, and the wound was observed whether the blood further oozed out.

In data set [4] the test system is stomach mucosa (posterior submucosal layer). Put plainly: Rabbit stomach submucosal injection. Type of data set: in vivo, New Zealand rabbit. The following applies: 0.5 ml injected, 25G needle, observed 30 min. How it is done:
After a New Zealand rabbit was fastened for 24 hours, injection anesthesia was conducted from the ear vein, the abdomen was then opened, afterwards a stoma was made in the anterior wall of the stomach to expose a stomach mucosa, and 0.5 ml of normal saline was injected into a posterior submucosal layer using a 25G needle. After being observed for 30 min, the rabbit was sacrificed, a tissue was then taken out and fixed in formalin for 2 days, embedded by paraffin, sectioned, and finally stained with hematoxylin and eosin (FIG. 8A). 0.5 ml of a 10 mg/ml sodium hyaluronate solution (FIG. 8B) and 0.5 ml of a 3% peptides ① water solution (FIG. 8C) were injected by the same method.

Data set [5] deals with colonic mucosa (submucosal layer). The data set can be described thus: Colonic submucosal injection of rabbits. Conditions: 0.5 ml injected, 25G needle, observed 30 min; colon. Type of data set: in vivo, New Zealand rabbit. How it is done: A New Zealand rabbit was fastened for 24 hours, injection of anesthesia was conducted via the ear vein, the abdomen was then opened, afterwards an open cutting was conducted along a midline of a colon to expose the colonic mucosa, 0.5 ml of normal saline was injected into the submucosal layer using a 25G needle. After observing for 30 min, the rabbit was sacrifice, a tissue was then taken out and fixed in formalin for 2 days, embedded by paraffin, sectioned, and finally stained with hematoxylin and eosin (FIG. 9B). 0.5 ml of a 10 mg/ml sodium hyaluronate solution (FIG. 9C) and 0.5 ml of a 3% peptide aqueous solution ① (FIG. 9D) were injected by the same method. An untreated normal tissue was used as a control (FIG. 9A).

A further data set relates to liver wound. The data set can be described thus: Rabbit liver hemostasis experiment. Type of data set: in vivo. The protocol: Hemostatic process: a peptide aqueous solution ① with a concentration of 3% was prepared, abdomen was opened after anesthesia of the rabbit, liver was exposed, and after the hepatic vessel was lacerated, the blood flowed out. After the blood flowed out was wiped off with a gauze, the peptide aqueous solution was sprayed onto the wound site immediately, and timing was conducted.

Setting [6] is: 3% peptide aqueous solution sprayed onto liver wound.

The text below walks through data of patent US20230310702A1, “SELF-ASSEMBLING PEPTIDES, PREPARATION METHODS, SELF-ASSEMBLING PEPTIDE FORMULATIONS AND USE” (Success Bio-Tech Co., Ltd., priority 2020, published 2023).

Entries after “also recorded” stand apart in the source; their conditions may differ.

Take “AC-Arg-Ala-Asp-Ala-Arg-Ala-Asp-Ala-Arg-Ala-Asp-Ala-Arg-Ala-Asp-Ala- amide [compound ⑤]”: the storage modulus entry in data set [1] is “less than 700 pa”. In addition, in data set [2] (concentration of 2.5%), the fluidity of solution entry is listed as “almost lost fluidity”. The viscosity during dissolution entry in data set [2] is reported as “increased with the increase of the concentrations”. Also, the Viscosity is given as 955.17 mPa·s in data set [3] (concentration 1%); “high viscosity; also recorded: high viscosities” in data set [3] (concentration 1%, listed as AC-(RADA)4-amide); 1817.96 mPa·s in data set [3] (concentration 2%); 2514.57 mPa·s in data set [3] (concentration 2.5%).

As to “AC-Arg-Val-Asp-Val-Arg-Val-Asp-Val-amide (Ac-RVDVRVDV-NH2) [comparison peptide without Pro in the viscosity test]”, the Viscosity is 658.25 mPa·s in data set [3] (concentration 1%); “high viscosities” in data set [3] (concentration 1%, listed as AC-RVDVRVDV-amide); 1546.21 mPa·s in data set [3] (concentration 2%).

Consider “AC-Pro-Arg-Val-Asp-Val-Arg-Pro-Asp-Val-Arg-Val-Asp-Pro-amide (Ac-PRVDVRPDVRVDP-NH2) [compound ④]”, for which, in data set [2], the viscosity during dissolution result is listed as “increased with the increase of the concentrations”.

As for “AC-Pro-Arg-Val-Asp-Val-Arg-Val-Asp-Pro-amide (Ac-PRVDVRVDP-NH2) [compound ①]”, in data set [2] (before gelation), the fluidity of solution entry is listed as “good fluidity”. Besides, the “time until no blood flowed out” value in the data set on rabbit back skin wound (3% peptide aqueous solution sprayed onto back skin incision) is “about 20 s”. For the same substance, the “gel formation on the wound” value in the data set with rabbit back skin wound (3% peptide aqueous solution sprayed onto back skin wound) is listed as “formed immediately”. Moreover, the “bleeding after hydrogel covering the surface was removed” value in the data set on rabbit back skin wound (3% peptide aqueous solution, back skin wound) is “no blood oozed out”. Besides, the “submucosal cushion layer (hematoxylin and eosin staining)” value in data set [4] was “fine and tight, and not loose”. For the same substance, the Viscosity result in data set [3] (concentration 3%) is “Under the detection limit”; in data set [3] (concentration 4%), “No viscosity numerical value was detected; also recorded: Under the detection limit”. For the same substance, the “submucosal filling (hematoxylin and eosin staining)” value in data set [5] was “filled with the peptide gel”. In the data set on liver wound (setting [6]), the “gel formation on contact with blood” value is on record as “formed immediately”. The “time until bleeding completely stopped” value in the data set with liver wound (setting [6]) was “about 15 s”. In the data set with liver wound (3% peptide aqueous solution, liver wound), the “hemostasis after excess hydrogel was removed” value is “hemostasis still obtained”.

Regarding “AC-Pro-Arg-Val-Asp-Val-Arg-Val-Asp-Val-amide (Ac-PRVDVRVDV-NH2) [compound ③]”, the viscosity during dissolution entry in data set [2] is reported as “increased with the increase of the concentrations”.

In the case of “AC-Pro-Lys-Val-Glu-Val-Lys-Val-Glu-Pro-amide (Ac-PKVEVKVEP-NH2) [compound ②]”, in data set [2] (before gelation), the fluidity of solution result is given as “good fluidity”. Moreover, the Viscosity entry in data set [3] (concentration 3%) is recorded as “Under the detection limit”; in data set [3] (concentration 4%), “No viscosity numerical value was detected; also recorded: Under the detection limit”.
